# Numbering of substitutions follows the chain as printed.
# B1: L40H40 phage-displayed Fab (Fab, V domains shown)
# VH: QVQLVQSGAEVKKPGSSVKVSCKASGGTFSSYAISWVRQAPGQGLEWMGRIIPILGIANYAQKFQGRVTITADKSTSTAYMELSSLRSEDTAVYYCAYGSGSYYDYYYMDVWGKGTTVTVSS
# VL: ETTLTQSPATLSLSPGQRATLSCRASQSVYNYLAWYQQKPGQAPRLLIYDASRRATGIPARFSGSGSGTDFTLTISSLEPEDFAVYYCQQRNNWPLTFGGGTKVEIK
# B2: L9H9 phage-displayed Fab (Fab, V domains shown)
# VH: EVQLVESGPGLVKPSGTLSLTCAVSGGSISSSNWWSWVRQPPGKGLEWIGYIYYSGSTYYNPSLKSRVTMSVDTSKNQFSLKLSSVTAADTAVYYCARWSYLDAFDIWGQGTMVTVSS
# VL: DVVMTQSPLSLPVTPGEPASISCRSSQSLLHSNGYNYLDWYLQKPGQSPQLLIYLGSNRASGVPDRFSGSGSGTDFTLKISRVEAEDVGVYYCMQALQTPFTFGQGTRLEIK
# B3: L51H51 phage-displayed Fab (Fab, V domains shown)
# VH: QVQLVQSGAEVKKPGSSVKVSCKASGGTFSSYAISWVRQAPGQGLEWMGIINPSGGSTSYAQKFQGRVTITRDTSASTAYMELSSLRSEDTAVYYCARDRWRYDAFDIWGQGTMVTVSS
# VL: NFMLTQPHSVSESPGKTVTISCTGSGGNIASNYVQWYQQRPGRAPTTVIYEDNRRPSGVPDRFSGSIDSSSNSASLTISGLKTEDEADYYCQSYDPYNRVFGGGTKLTVL
# B4: L16H16 phage-displayed Fab (Fab, V domains shown)
# VH: QVQLQESGPGLVKPSGTLSLTCAVSGGSISSSNWWSWVRQPPGKGLEWIGEIYHSGSTNYNPSLKSRVTISVDKSKNQFSLKLSSVTAADTAVYYCARWTGRTDAFDIWGQGTMVTVSS
# VL: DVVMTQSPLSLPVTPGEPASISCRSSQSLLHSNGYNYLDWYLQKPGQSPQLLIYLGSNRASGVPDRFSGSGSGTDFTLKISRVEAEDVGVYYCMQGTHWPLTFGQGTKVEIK
# B5: L50H50 phage-displayed Fab (Fab, V domains shown)
# VH: QVQLQESGPGLVKPSETLSLTCTVSGGSIGNYDWSWIRQPPGKGLEWIGTIYSSGSTYYSPSLKSRLTISVDKSKNRFSLKLSSVTAADTAVYYCARARGYSSPFDPWGQGTLVTVSS
# VL: ETTLTQSPGTLSLSPGERATLSCRASQTISSSHLAWYQQKPGQSPRLLIYGAGYRATGIPDRFSGSGSGTDFTLTISRLEPEDFAVYYCQHYGSSLRTFGQGTKVEIK
# B6: L4H4 phage-displayed Fab (Fab, V domains shown)
# VH: QVQLQQWGAGLLKPSETLSLTCAVSGGSFSGYYWSWIRQPPGKGLEWIGEINHSGSTNYNRSLKSRVTISVDTSKNQFSLKLSSVTAADTAVYYCARLSYGSGVDYWGQGTLVTVSS
# VL: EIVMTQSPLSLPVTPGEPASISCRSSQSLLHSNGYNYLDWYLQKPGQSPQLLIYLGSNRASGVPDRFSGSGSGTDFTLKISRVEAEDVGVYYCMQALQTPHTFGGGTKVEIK
# B7: L49H49 phage-displayed Fab (Fab, V domains shown)
# VH: QVQLQQWGAGLLKPSETLSLTCAVYGGSFSGYYWSWIRQPPGKGLEWIGEINHSGSTNYNPSLKSRVTISVDTSKNQFSLKLSSVTAADTAVYYCARVGYSHGEEVLDVWGKGTTVTVSS
# VL: NFMLTQPHSVSESPGKTVSISCTRNSGSIASNFVQWYQQRPGSAPTIVIYEDNQRPSAVPTRFSGSIDRSSNSASLTISGLTTEDEADYYCQSYDSANVIFGGGTKLTVL
# B8: L52H52 phage-displayed Fab (Fab, V domains shown)
# VH: EVQLVESGPGLVKPSGTLSLTCAVSGGSISSSNWWSWVRQPPGKGLEWIGEIYHSGSTNYNPSLKSRVTISVDKSKNQFSLKLSSVTAADTAVYYCAREKSGMDVWGQGTTVTVSS
# VL: EIVMTQSPLSLPVTPGEPASISCRSSQSLLHTNGYDYLDWYLQKPGQSPQLLIYLGSTRASGVPDRFSGSGSGTDFTLKISRVEAEDVGVYYCMQAFQTPLTFGGGTKMEIK
# B9: L26H26 phage-displayed Fab (Fab, V domains shown)
# VH: B4 VH with W99Y, T100S, G101Y, R102G, D104V, A105G, F106I, I108Y, M114L
# VL: B8 VL with E1D, I2V, T32S, D36T, T58N, A85P, F97L, Q98E, T99M, M109V
# B10: L5H5 phage-displayed Fab (Fab, V domains shown)
# VH: QLQLQESGPGLVKPSQTLSLTCTVSGGSISSSNWWSWVRQPPGKGLEWIGEIYHSGSTNYNPSLKSRVTISVDKSKNQFSLKLSSVTAADTAVYYCARYSSSRNDAFDIWGQGTMVTVSS
# VL: not shown
# B11: L12H12 phage-displayed Fab (Fab, V domains shown)
# VH: EVQLVESGGGLVQPGGSLRLSCAASGFTFSSYAMSWVRQAPGKGLEWVSAISGSGGSTYYADSVKGRFTISRDNSKNTLYLQMNSLSADDTAVYFCASGGWYGDYFDYWGQGTLVTVSS
# VL: NFMLTQPHSVSESPGKTVTISCTRSSGSIASNYVQWYQQRPGSSPTTVIYEDNQRPSGVPDRFSGSIDSSSNSASLTISGLKTEDEADYYCQSYDSSNQRVFGGGTKLTVL
# B12: L13H13 phage-displayed Fab (Fab, V domains shown)
# VH: QVQLQESGPGLVKPSETLSLTCTVSGGSISSSNWWSWVRQPPGKGLEWIGEIYHSGSTNYNPSLKSRVTISVDKSKNQFSLKLSSVTAADTAVYYCAREGNRTVTSAFDIWGQGTMVTVSS
# VL: not shown
# B13: L8H8 phage-displayed Fab (Fab, V domains shown)
# VH: QVQLQQWGPGLVKPSGTLSLTCAVSGGSISSSNWWSWVRQPPGKGLEWIGEIYHSGSTNYNPSLESRVTISVDKSKNQFSLKLSSVTAADTAVYYCARDRYYGMDVWGQGTTVTVSS
# VL: not shown
# B14: L11H11 phage-displayed Fab (Fab, V domains shown)
# VH: QLQLQESGPGLVKPSGTLSLTCAVSGGSISSSNWWSWVRQPPGKGLEWIGEIYHSGSTNYNPSLKSRVTISVDKSKNQSSLKLSSVTAADTAVYYCARANRDDAFDIWGQGTMVTVSS
# VL: EIVLTQSPLSLPVTPGEPASISCRSSQSLLHSNGYNYLNWYLQKPGQSPQLLIYLGSNRASGVPDRFSASGSGTDFTLKISRVEAEDVGVYYCMQALQTPITFGQGTRLEIK
# Molecular target: T1, hu INSR(ECD)-muIgG1Fc (human; mouse, Glycosylated. 87% of the preparation was cleaved between the alpha and beta chains (RKRR site), which stay disulfide-linked. Dimer through the receptor and the murine Fc.)
# T1 construct: 87% processed into α and β chains; also called INSR(ECD)-muFc; INSR-mFc
# Experiment: phage Fab ELISA, plate coated with INSR-mFc at 5 µg/ml
# Method: (§1) In 96-well 2-ml deep-well blocks, 480 μl/well 2xYT-CG broth was inoculated with 20 μl of overnight cultures of the individual clones, then incubated at 37° C., 300 rpm for 3 hours. To each well, 50 μl of 1:3 diluted M13KO7 helper phage were added to infect the cells. The block was incubated at 37° C. without shaking for 30 minutes, and then shaken gently for another 30 minutes at 150 rpm. The block was centrifuged at 3600 rpm for 20 minutes to pellet the infected cells. The cell pellet in each well was suspended into 480 μl of 2xYT-CK (2xYT broth containing 100 μg/ml carbenicillin and 40 μg/ml kanamycin), and incubated at 30° C. overnight for about 20 hours. The cell debris was separated by centrifugation at 3600 rpm for 20 minutes. The rescued phage supernatant was used in the phage ELISA to check for IGF-1R-specific, INSR-cross reactive, or mouse Fc binding of individual clones.
# (§2) The coated plates were washed 3× with 300 μl/well of PBS. The washed plates were blocked with 300 μl/well 2% MPBS at room temperature for one hour. Meanwhile, rescued phages of individual clones were pre-blocked by mixing 170 μl of rescued phage with 170 μl of 4% MPBS. The blocked plates were washed 5× with 300 μl/well TBST (TBS: 10 mM Tris-HCl, pH 7.5, 1 mM EDTA, 150 mM NaCl; Tween-20. 0.1%). 100 μl/well of pre-blocked phage dilutions were distributed to each set of coated plate, which were incubated at room temperature on a rocker for 90 minutes. The plates were washed 5× with 300 μl/well TBST. 100 μl/well of anti-M13-HRP in 2% MPBS (1:3000 dilution, catalog number 27-9421-01, Amersham Pharmacia Biotech) were distributed, and plates were incubated at room temperature on rocker for one hour. The plates were washed 5× with 300 μl/well TBST. 100 μl/well of the substrate 1-Step™ ABTS (Pierce Biotechnology, Rockford, Ill., catalog number 37615) were added. Plates were incubated for one hour. OD₄₀₅ was measured for signal detection.
row,Binder,binding result
1,B1,no binding
2,B2,no binding
3,B3,no binding
4,B4,no binding
5,B5,no binding
6,B6,no binding
7,B7,no binding
8,B8,no binding
9,B9,no binding
10,B10,no binding
11,B11,no binding
12,B12,no binding
13,B13,no binding
14,B14,no binding

# Molecular target: T2, hu IGF-1R(ECD)-C3-muIgG1Fc (human; mouse, Glycosylated. 60% of the preparation was cleaved between the alpha and beta chains (RKRR, mature positions 708-711), which stay disulfide-linked; 40% was unprocessed. Dimer through the …)
# T2 construct: 60% of the product was processed into α and β chains, 40% unprocessed; also called IGF-1R(ECD)-C3-muFc; IGF-1R-C3-muFc
# Experiment: phage Fab ELISA, plate coated with IGF-1R-C3-mFc at 5 µg/ml
# Method: as §1, §2
row,Binder,binding result
1,B1,binds
2,B2,binds
3,B3,binds
4,B4,binds
5,B5,binds
6,B6,binds
7,B7,binds
8,B8,binds
9,B9,binds
10,B10,binds
11,B11,binds
12,B12,binds
13,B13,binds
14,B14,binds
